Laboratory results as given in patent US20250282892A1 (BIOMUNEX PHARMACEUTICALS, published 2025).

B1: BMX003-010 (humanized Patri-Cetu-Fc) (bispecific antibody, human IgG1, kappa)
heavy: not shown
light 1: not shown
light 2: EIVLTQSPDFQSVTPKEKVTITCRASQSIGTNIHWYQQKPDQSPKLLIKYASESISGVPSRFSGSGSGTDFTLTINSLEAEDAATYYCQQNNNWPTTFGAGTKLEIKRTVAAPSVFIFPPSDEQLKSGTASVTCLLNNFYPREAKVQWKVDNALQSGNSQESVTEQDSKDSTYSLVSTLTLSKADYEKHKVYACEVTHQGLSSPVTKSFNRGEC
B2: BMX003-011 (humanized Patri-Cetu-Fc modified) (bispecific antibody, human IgG1, kappa)
heavy: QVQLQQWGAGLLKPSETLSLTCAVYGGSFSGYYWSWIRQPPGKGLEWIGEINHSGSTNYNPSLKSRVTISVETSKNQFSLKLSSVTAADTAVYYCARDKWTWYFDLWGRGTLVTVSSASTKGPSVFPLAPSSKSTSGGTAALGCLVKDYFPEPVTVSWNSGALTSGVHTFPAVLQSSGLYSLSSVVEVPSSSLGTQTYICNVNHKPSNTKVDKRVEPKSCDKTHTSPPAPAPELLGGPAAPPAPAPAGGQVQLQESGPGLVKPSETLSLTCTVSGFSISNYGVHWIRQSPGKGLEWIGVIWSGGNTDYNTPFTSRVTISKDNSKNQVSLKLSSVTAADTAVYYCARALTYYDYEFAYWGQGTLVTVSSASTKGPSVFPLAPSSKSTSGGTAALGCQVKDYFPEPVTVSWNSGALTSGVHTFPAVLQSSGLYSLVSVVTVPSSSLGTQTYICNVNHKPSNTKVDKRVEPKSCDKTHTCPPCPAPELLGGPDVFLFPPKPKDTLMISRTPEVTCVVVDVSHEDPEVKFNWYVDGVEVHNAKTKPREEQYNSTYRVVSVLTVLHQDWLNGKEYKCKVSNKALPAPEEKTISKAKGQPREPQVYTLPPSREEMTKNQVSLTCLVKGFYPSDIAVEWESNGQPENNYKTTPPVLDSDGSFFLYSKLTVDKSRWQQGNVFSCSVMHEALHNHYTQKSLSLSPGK
light 1: not shown
light 2: B1 light 2
notes: Identical to BMX003-010 except for 2 mutations in the Fc domain (S239D and I332E, printed '1332E')
B3: Matuzumab (antibody, V domains shown)
VH: QVQLVQSGAEVKKPGASVKVSCKASGYTFTSHWMHWVRQAPGQGLEWIGEFNPSNGRTNYNEKFKSKATMTVDTSTNTAYMELSSLRSEDTAVYYCASRDYDYAGRYFDYWGQGTLVTVSS
VL: DIQMTQSPSSLSASVGDRVTITCSASSSVTYMYWYQQKPGKAPKLLIYDTSNLASGVPSRFSGSGSGTDYTFTISSLQPEDIATYYCQQWSSHIFTFGQGTKVEIK
notes: Parental monoclonal antibody used as positive control; also called EMD72000; parental antibody (anti-EGFR)
B4: Patri-Matu-Fc (bispecific antibody, human IgG1, kappa)
heavy: not shown
light 1: not shown
light 2: DIQMTQSPSSLSASVGDRVTITCSASSSVTYMYWYQQKPGKAPKLLIYDTSNLASGVPSRFSGSGSGTDYTFTISSLQPEDIATYYCQQWSSHIFTFGQGTKVEIKRTVAAPSVFIFPPSDEQLKSGTASVTCLLNNFYPREAKVQWKVDNALQSGNSQESVTEQDSKDSTYSLVSTLTLSKADYEKHKVYACEVTHQGLSSPVTKSFNRGEC
notes: Tetravalent tandem Fab-Fc: external Fabs patritumab (anti-HER3), internal Fabs matuzumab (anti-EGFR); 2 heavy chains and 4 light chains; also called 3Patri-1Matu-Fc

Experiments:
[1] = target: T1, HER3 protein expressed on the cell surface of SW-1990 cells (UniProt P21860 20-1342, limits assumed); assay: flow cytometry on SW-1990 cells (FIG. 10)
T1 construct: whole, on cells; SW-1990 cells carry HER3 and EGFR together; the flow cytometry signal is not split between them

[2] = target: T2, EGFR protein expressed on the cell surface of SW-1990 cells (UniProt P00533 25-1210, limits assumed); assay: flow cytometry on SW-1990 cells (FIG. 10)
T2 construct: whole, on cells; SW-1990 cells carry HER3 and EGFR together; the flow cytometry signal is not split between them

EGFR His tag = target: T3, EGFR His tag (UniProt P00533 25-645); assay: direct ELISA, His-tagged antigen coated, anti-human Fc-HRP detection
T3 construct: Recombinant His-tagged antigen; not shown: His tag

HER3 His tag = target: T4, HER3 His tag (UniProt P21860 20-643); assay: as above
T4 construct: Recombinant His-tagged antigen; not shown: His tag

| Binder | binding result [1] | binding result [2] | EC50 (EGFR His tag) [nM] | EC50 (HER3 His tag) [nM] |
| --- | --- | --- | --- | --- |
| B1 | binds | binds |  |  |
| B2 | binds | binds |  |  |
| B3 |  |  | 0.09 |  |
| B4 |  |  | 0.39 | 0.16 |
